Tests used:
Assay in all cases: REVEAL MHC-peptide binding
HLA-B27 = biological target: HLA-B27
HLA-B15 = biological target: HLA-B15
HLA-B8 = biological target: HLA-B8
HLA-A24 = biological target: HLA-A24
HLA-A1 = biological target: HLA-A1
HLA-A3 = biological target: HLA-A3
HLA-B7 = biological target: HLA-B7
HLA-A2 = biological target: HLA-A2
HLA-A29 = biological target: HLA-A29
HLA-A11 = biological target: HLA-A11
HLA-B35 = biological target: HLA-B35
HLA-B14 = biological target: HLA-B14

Substance: GP[Cit]IGVRAT (peptide)
- % of positive control (HLA-B27): 0.59%
- % of positive control (HLA-B15): 7.29%
- % of positive control (HLA-B8): 9.99%
- % of positive control (HLA-A24): 0.16%
- % of positive control (HLA-A1): 18.6%
- % of positive control (HLA-A3): 3.48%
- % of positive control (HLA-B7): 5.38%
- % of positive control (HLA-A2): 9.16%
- % of positive control (HLA-A29): 11.9%
- % of positive control (HLA-A11): 2.72%
- % of positive control (HLA-B35): 2.25%
- % of positive control (HLA-B14): 0.13%

Substance: AEL[Nle]GYIPL (peptide)
- % of positive control (HLA-B27): 0.77%
- % of positive control (HLA-B15): 10.2%
- % of positive control (HLA-B8): 14.7%
- % of positive control (HLA-A24): 0.37%
- % of positive control (HLA-A1): 16.6%
- % of positive control (HLA-A3): 3.05%
- % of positive control (HLA-B7): 1.11%
- % of positive control (HLA-A2): 7.49%
- % of positive control (HLA-A29): 20.8%
- % of positive control (HLA-A11): 3.61%
- % of positive control (HLA-B35): 1.91%
- % of positive control (HLA-B14): 0.12%

Substance: EL[Nle]GYIPLI (peptide)
- % of positive control (HLA-B27): 0.67%
- % of positive control (HLA-B15): 8.91%
- % of positive control (HLA-B8): 17.1%
- % of positive control (HLA-A24): 0.92%
- % of positive control (HLA-A1): 18.3%
- % of positive control (HLA-A3): 4.54%
- % of positive control (HLA-B7): 0.68%
- % of positive control (HLA-A2): 97.9%
- % of positive control (HLA-A29): 20.9%
- % of positive control (HLA-A11): 3.21%
- % of positive control (HLA-B35): 2.55%
- % of positive control (HLA-B14): 0.14%

Substance: [Cit]IGVRAT[Cit]R (peptide)
- % of positive control (HLA-B27): 0.86%
- % of positive control (HLA-B15): 14.4%
- % of positive control (HLA-B8): 12.1%
- % of positive control (HLA-A24): 0.5%
- % of positive control (HLA-A1): 19.7%
- % of positive control (HLA-A3): 25.2%
- % of positive control (HLA-B7): 14.6%
- % of positive control (HLA-A2): 8.17%
- % of positive control (HLA-A29): 16.7%
- % of positive control (HLA-A11): 8.27%
- % of positive control (HLA-B35): 8.51%
- % of positive control (HLA-B14): 0.17%

Substance: [Nle]GYIPLIGA (peptide)
- % of positive control (HLA-B27): 1.42%
- % of positive control (HLA-B15): 11.1%
- % of positive control (HLA-B8): 21.4%
- % of positive control (HLA-A24): 1.33%
- % of positive control (HLA-A1): 17.9%
- % of positive control (HLA-A3): 3.13%
- % of positive control (HLA-B7): 1.78%
- % of positive control (HLA-A2): 10.4%
- % of positive control (HLA-A29): 27.9%
- % of positive control (HLA-A11): 7.27%
- % of positive control (HLA-B35): 5.89%
- % of positive control (HLA-B14): 0.29%

Substance: L[Nle]GYIPLIG (peptide)
- % of positive control (HLA-B27): 0.73%
- % of positive control (HLA-B15): 14.6%
- % of positive control (HLA-B8): 17.3%
- % of positive control (HLA-A24): 0.71%
- % of positive control (HLA-A1): 14.3%
- % of positive control (HLA-A3): 3.98%
- % of positive control (HLA-B7): 0.89%
- % of positive control (HLA-A2): 49.5%
- % of positive control (HLA-A29): 25.9%
- % of positive control (HLA-A11): 2.48%
- % of positive control (HLA-B35): 2.85%
- % of positive control (HLA-B14): 0.15%

Substance: P[Cit]IGVRAT[Cit] (peptide)
- % of positive control (HLA-B27): 0.94%
- % of positive control (HLA-B15): 12.6%
- % of positive control (HLA-B8): 9.47%
- % of positive control (HLA-A24): 0.21%
- % of positive control (HLA-A1): 18.8%
- % of positive control (HLA-A3): 2.52%
- % of positive control (HLA-B7): 1.91%
- % of positive control (HLA-A2): 7.36%
- % of positive control (HLA-A29): 14.1%
- % of positive control (HLA-A11): 1.72%
- % of positive control (HLA-B35): 2.45%
- % of positive control (HLA-B14): 0.19%
